Data from article PMC8027116 (2021).

Legend:
Assay in all cases: activation reporter or marker
[1] = biological target: T1, insulin B-chain peptide on HLA-DRA*01:01 / HLA-DRB1*04:01 (human)
T1 peptide: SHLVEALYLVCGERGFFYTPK

[2] = biological target: T2, preproinsulin peptide on HLA-DRA*01:01 / HLA-DRB1*03:01 (human)
T2 peptide: QKRGIVEQCCTSICS

[3] = biological target: T3, preproinsulin peptide on HLA-DQA1*05:01 / HLA-DQB1*02:01 (human)
T3 peptide: YLVCGERGFFYTPKT

[4] = biological target: T4, preproinsulin peptide on HLA-DQA1*05:01 / HLA-DQB1*02:02 (human)
T4 peptide: YLVCGERGFFYTPKT

[5] = biological target: T5, preproinsulin peptide on HLA-DRA*01:01 / HLA-DRB1*09:01 (human)
T5 peptide: AEDLQVGQVELGGGP

[6] = biological target: T6, preproinsulin peptide on HLA-DRA*01:01 / HLA-DRB1*03:01 (human)
T6 peptide: AEDLQVGQVELGGGP

B1: 23.G8 (TCR)
alpha TRAV39 TRAJ56 CDR3: CAWRTGANSKLTF
beta TRBV24-1 TRBJ2-2 CDR3: CATGLAANTGELFF
binding result [1]: no recognition

B2: 95.A9-1 (TCR)
alpha TRAV9-2 TRAJ18 CDR3: CALRTDRGSTLGRLYF
beta TRBV11-2 TRBJ1-6 CDR3: CASSLQSSYNSPLHF
binding result [2]: no recognition

B3: 56.B1 (TCR)
alpha TRAV13-1 TRAJ40 CDR3: CAVLSPSGTYKYIF
beta TRBV7-9 TRBJ1-4 CDR3: CASSLMGNPHEKLFF
binding result [3]: recognises | binding result [4]: recognises

B4: 55.C10 (TCR)
alpha TRAV26-1 TRAJ26 CDR3: CIVRSHGQNFVF
beta TRBV20-1 TRBJ2-7 CDR3: CSARPGTRNYEQYF
binding result [5]: no recognition | binding result [6]: no recognition
